From the Immune Epitope Database (IEDB)

Tests used:
HLA-A*02:01 [1] = assay: IEDB peptide-MHC binding, cellular MHC/competitive/fluorescence; ≥ and ≤ were set here for values at or beyond the usual limits of such assays
HLA-A*02:03 = assay: as above
HLA-A*02:06 [2] = assay: as above
HLA-A*68:02 [3] = assay: as above
HLA-A*02:02 = assay: IEDB peptide-MHC binding, purified MHC/competitive/radioactivity; ≥ and ≤ were set here for values at or beyond the usual limits of such assays
HLA-A*68:02 [4] = assay: as above
HLA-A*02:01 [5] = assay: as above
HLA-A*02:06 [6] = assay: as above; conditions: source organism: Influenza A virus
[7] = source organism: Vaccinia virus WR
[8] = source organism: Mammarenavirus machupoense
[9] = source organism: Influenza A virus
[10] = source organism: Mammarenavirus guanaritoense
[11] = source organism: Mammarenavirus brazilense
[12] = source organism: Mammarenavirus choriomeningitidis

Sequence | IC50 (HLA-A*02:01 [1]; [7]) | IC50 (HLA-A*02:03; [7]) | IC50 (HLA-A*02:06 [2]; [7]) | IC50 (HLA-A*68:02 [3]; [7]) | IC50 (HLA-A*02:02; [7]) | IC50 (HLA-A*68:02 [4]; [7]) | further results
DIKYDNKLL | 26.5 µM | 49.8 µM | ≥ 70 µM | 24.8 µM | 1.42 µM | – | –
PLPCQLMYAL | 13 µM | 8.71 µM | 9.81 µM | 31.3 µM | 0.163 µM | – | –
ELPYVGDTSM | 13.4 µM | 14.2 µM | 29.8 µM | – | 4.13 µM | 0.913 µM | –
NVSRVVECLT | 9.45 µM | 14.3 µM | 10 µM | – | 4.66 µM | 0.55 µM | –
GTGILFMEM | 6.37 µM | 7.73 µM | 9.97 µM | 26.5 µM | 2.2 µM | – | –
SSWAVHWFS | – | – | – | – | – | – | IC50 (HLA-A*02:01 [1]; [8]): 8.01 µM; IC50 (HLA-A*02:03; [8]): ≥ 70 µM; IC50 (HLA-A*02:06 [2]; [8]): 46.8 µM; IC50 (HLA-A*02:02; [8]): 4.65 µM; IC50 (HLA-A*68:02 [4]; [8]): 4.1 µM
VAVNKSNKPL | 45 µM | 5.13 µM | 17.6 µM | 9.35 µM | 2.75 µM | – | –
QAIMDKNIIL | – | – | – | – | – | – | IC50 (HLA-A*02:03; [9]): 11.4 µM; IC50 (HLA-A*02:06 [2]; [9]): 13.4 µM; IC50 (HLA-A*68:02 [3]; [9]): 8.92 µM; IC50 (HLA-A*02:01 [5]; [9]): 1.02 µM; IC50 (HLA-A*02:02; [9]): 0.937 µM
KISVEKIKQT | – | 8.96 µM | 21 µM | 11.2 µM | 1.23 µM | – | IC50 (HLA-A*02:01 [5]; [7]): 4.67 µM
EIARIENEM | ≥ 70 µM | 47.9 µM | ≥ 70 µM | – | 0.335 µM | 0.0084 µM | –
CTSEIQNVT | 13.5 µM | 5.19 µM | 10.2 µM | – | 0.188 µM | 0.09 µM | –
LNVSYLCHL | – | – | – | – | – | – | IC50 (HLA-A*02:01 [1]; [8]): 6.27 µM; IC50 (HLA-A*02:03; [8]): 7.1 µM; IC50 (HLA-A*02:06 [2]; [8]): 13.7 µM; IC50 (HLA-A*68:02 [3]; [8]): 20.3 µM; IC50 (HLA-A*02:02; [8]): 0.297 µM
RAGYSIVEL | – | 5.39 µM | 5.07 µM | – | 4.94 µM | 1.21 µM | IC50 (HLA-A*02:01 [5]; [7]): 5 µM
LNIALVAVSL | – | – | – | – | – | – | IC50 (HLA-A*02:03; [8]): 12.5 µM; IC50 (HLA-A*02:06 [2]; [8]): 13.2 µM; IC50 (HLA-A*02:01 [5]; [8]): 1.25 µM; IC50 (HLA-A*02:02; [8]): 0.18 µM; IC50 (HLA-A*68:02 [4]; [8]): 0.52 µM
MNNVVQALT | – | – | – | – | – | – | IC50 (HLA-A*02:01 [1]; [10]): 7.48 µM; IC50 (HLA-A*02:03; [10]): 21.5 µM; IC50 (HLA-A*02:06 [2]; [10]): ≥ 70 µM; IC50 (HLA-A*02:02; [10]): 2.29 µM; IC50 (HLA-A*68:02 [4]; [10]): 0.281 µM
IMLIIFWFSL | – | – | – | – | – | – | IC50 (HLA-A*02:03; source organism: SARS-CoV1): 14.9 µM; IC50 (HLA-A*02:06 [2]; source organism: SARS-CoV1): 16.8 µM; IC50 (HLA-A*68:02 [3]; source organism: SARS-CoV1): ≥ 70 µM; IC50 (HLA-A*02:01 [5]; source organism: SARS-CoV1): 3.83 µM; IC50 (HLA-A*02:02; source organism: SARS-CoV1): 1.54 µM
IQYRQQLELA | ≥ 70 µM | 8.47 µM | ≥ 70 µM | 12.9 µM | 4.32 µM | – | –
LCFWSAIFFT | – | – | – | – | – | – | IC50 (HLA-A*02:01 [1]; [10]): 5.57 µM; IC50 (HLA-A*02:03; [10]): 30.3 µM; IC50 (HLA-A*02:06 [2]; [10]): 34.6 µM; IC50 (HLA-A*02:02; [10]): 2.61 µM; IC50 (HLA-A*68:02 [4]; [10]): 1.82 µM
NLYISDYKM | 6.17 µM | 25.3 µM | 11 µM | 14.9 µM | 2.79 µM | – | –
DVQRTRCKYV | – | 6.46 µM | 9.51 µM | – | 1.07 µM | 1.46 µM | IC50 (HLA-A*02:01 [5]; [7]): 1.57 µM
VTTNNLLEQL | 21.6 µM | 17.9 µM | 5.91 µM | – | 4.69 µM | 2.94 µM | –
NLEELTTVFI | 7.5 µM | 6.5 µM | 12.3 µM | – | 0.418 µM | 1.3 µM | –
VIVVPVIDRL | 14.8 µM | 59 µM | 11.1 µM | 31.4 µM | 4.57 µM | – | –
SAFDERRNRYL | – | – | – | – | – | – | IC50 (HLA-A*02:01 [1]; [9]): 17.8 µM; IC50 (HLA-A*02:03; [9]): 5.17 µM; IC50 (HLA-A*02:06 [2]; [9]): 34.7 µM; IC50 (HLA-A*68:02 [3]; [9]): 5.9 µM; IC50 (HLA-A*02:02; [9]): 1.28 µM
SMGVYQILA | – | – | – | – | – | – | IC50 (HLA-A*02:03; [9]): 7.05 µM; IC50 (HLA-A*02:06 [2]; [9]): 10.4 µM; IC50 (HLA-A*68:02 [3]; [9]): 16.8 µM; IC50 (HLA-A*02:01 [5]; [9]): 0.978 µM; IC50 (HLA-A*02:02; [9]): 0.518 µM
DIYDAVRAFL | 5.42 µM | 6.95 µM | 12.1 µM | – | 1.46 µM | 0.257 µM | –
VATFRDMLL | 8.94 µM | 9.94 µM | 7.71 µM | 5.92 µM | 2.53 µM | – | –

Sequence | IC50 (HLA-A*02:01 [1]; [7]) | IC50 (HLA-A*02:03; [7]) | IC50 (HLA-A*02:06 [2]; [7]) | IC50 (HLA-A*68:02 [3]; [7]) | IC50 (HLA-A*02:02; [7]) | IC50 (HLA-A*68:02 [4]; [7]) | further results
KSYFTNAAL | – | – | – | – | – | – | IC50 (HLA-A*02:03; [8]): 7.18 µM; IC50 (HLA-A*02:06 [2]; [8]): 12 µM; IC50 (HLA-A*02:01 [5]; [8]): 4.97 µM; IC50 (HLA-A*02:02; [8]): 0.593 µM; IC50 (HLA-A*68:02 [4]; [8]): 0.106 µM
LISILMIFI | – | 5 µM | 7.03 µM | 10.5 µM | 2.37 µM | – | IC50 (HLA-A*02:01 [5]; [7]): 1.29 µM
WLRAKRKPAM | 22.5 µM | 20.1 µM | 11.9 µM | – | 4.67 µM | 2.86 µM | –
IVDKFGKNHI | 11.2 µM | 5.08 µM | 8.33 µM | 12.4 µM | 2.93 µM | – | –
QAKKPEVRI | 39.7 µM | 6.57 µM | 42 µM | ≥ 70 µM | 0.738 µM | – | –
PIPMSRLFM | – | 9.13 µM | 31.4 µM | ≥ 70 µM | 3.89 µM | – | –
RTRCKYVGCT | 48.5 µM | 12.3 µM | 11.6 µM | – | 0.149 µM | 4.69 µM | –
NIEIMDKEQL | – | 15.5 µM | 5.65 µM | – | 3.47 µM | 1.38 µM | IC50 (HLA-A*02:01 [5]; [7]): 4.66 µM
ALWDSNFFT | – | 28.2 µM | 23.1 µM | 7.41 µM | 1.06 µM | – | IC50 (HLA-A*02:01 [5]; [7]): 3.69 µM
IASKINNNRI | 30.8 µM | 18.5 µM | 9.42 µM | – | 0.732 µM | 0.163 µM | –
RSASGGVYL | – | – | – | – | – | – | IC50 (HLA-A*02:01 [1]; [11]): 32.5 µM; IC50 (HLA-A*02:03; [11]): 14.5 µM; IC50 (HLA-A*02:06 [2]; [11]): 13.6 µM; IC50 (HLA-A*02:02; [11]): 0.278 µM; IC50 (HLA-A*68:02 [4]; [11]): 4.44 µM
DTCLLAISA | 6.69 µM | 6.45 µM | 25.2 µM | – | 4.33 µM | 0.316 µM | –
YTGGYDVSL | – | 6.05 µM | 20.3 µM | 6.67 µM | 1.99 µM | – | IC50 (HLA-A*02:01 [5]; [7]): 3.74 µM
YLSKEDRIIT | 11.9 µM | 5.57 µM | 48.7 µM | 21.5 µM | 1.3 µM | – | –
TVSSFQDIL | – | – | – | – | – | – | IC50 (HLA-A*02:01 [1]; [9]): 40.7 µM; IC50 (HLA-A*02:03; [9]): 8.97 µM; IC50 (HLA-A*02:06 [2]; [9]): 13.8 µM; IC50 (HLA-A*02:02; [9]): 0.457 µM; IC50 (HLA-A*68:02 [4]; [9]): 0.846 µM
SANMDWRSLT | 55.7 µM | 11.3 µM | 48.1 µM | 15.4 µM | 1.79 µM | – | –
IAGIILLIL | – | 52.9 µM | ≥ 70 µM | 8.8 µM | 4.19 µM | – | IC50 (HLA-A*02:01 [5]; [7]): 3.23 µM
FNPMIVELA | – | – | – | – | – | – | IC50 (HLA-A*02:01 [1]; [9]): 25.2 µM; IC50 (HLA-A*02:03; [9]): 11.6 µM; IC50 (HLA-A*02:06 [2]; [9]): 12.6 µM; IC50 (HLA-A*02:02; [9]): 0.937 µM; IC50 (HLA-A*68:02 [4]; [9]): 1.62 µM
KLISEKETL | 10.2 µM | 24.7 µM | 7.65 µM | ≥ 70 µM | 0.841 µM | – | –
SCDDVVFGI | – | – | – | – | – | – | IC50 (HLA-A*02:01 [1]; [12]): 5.61 µM; IC50 (HLA-A*02:03; [12]): 50.5 µM; IC50 (HLA-A*02:06 [2]; [12]): 14.6 µM; IC50 (HLA-A*02:02; [12]): 2.15 µM; IC50 (HLA-A*68:02 [4]; [12]): 0.306 µM
TVGMLIYSM | – | 6.09 µM | 9.18 µM | – | 0.49 µM | 1.79 µM | IC50 (HLA-A*02:01 [5]; [7]): 0.809 µM
LIFNVKSKLL | 25.5 µM | 6.69 µM | 28.5 µM | 32.6 µM | 2.39 µM | – | –
DAEFVMCLEA | 9.14 µM | 7.3 µM | 12.7 µM | – | 2.41 µM | 1.59 µM | –
DTSNNIAEYI | 6.29 µM | 9.22 µM | 45.7 µM | – | 3.33 µM | 0.047 µM | –
GILHLILWIL | – | – | – | – | – | – | IC50 (HLA-A*02:01 [1]; [9]): 16.7 µM; IC50 (HLA-A*02:03; [9]): 7.7 µM; IC50 (HLA-A*68:02 [3]; [9]): 8.03 µM; IC50 (HLA-A*02:02; [9]): 4.52 µM; IC50 (HLA-A*02:06 [6]): 2.54 µM
QIYLSDSDNI | 24.9 µM | 19.6 µM | 14.9 µM | – | 1.24 µM | 0.658 µM | –
